Source: the RNAGym collection of RNA variant scans (doi:10.7554/elife.90254)

B1: LINE1-mini (parent)
chain: GGCAGAGCUCAACACAGCGUGGCAAAGUGGCUGUGGCUAGACUGCC

Variants of: B1
Assay: self-cleavage, relative activity (ratio to wild type); higher = more cleavage; in vitro, sequencing; the parent is a self-cleaving ribozyme

In order of falling self-cleavage:
1. GGCAGAGCUCAACACAGCGUGGUAAAGUGCCUGUGGCUAGACUGCC [C23U G30C]  2.32
2. GGCAGAGCUCAACACAGCGUGGUAAAGUGACUGUGGCUAGACUGCC [C23U G30A]  2.05
3. GGCAGAGCUCAACACAGCGUGGUAAAGUGUCUGUGGCUAGACUGCC [C23U G30U]  1.38
4. GGCAGAGCUCAACACAGCGUGGUAAAGUAGCUGUGGCUAGACUGCC [C23U G29A]  1.11
5. GGCAGAGCUCAACACAGCGUGGUAAAGUGGCUGUGGCUAGACUGUC [C23U C45U]  1.09
6. GGCAGAGCUCAACACAGCGUGGCCUAGUGGCUGUGGCUAGACUGCC [A24C A25U]  1.01
7. GGCAGAGCUCAACACAGCGUGGCCGAGUGGCUGUGGCUAGACUGCC [A24C A25G]  0.89
8. GGCAGAGCUCAACACAGCGUGGUAAAGUGGCUGUGGCUUGACUGCC [C23U A39U]  0.89
9. GGCAGAGCUCAACACAGCGUGGUAAAGUUGCUGUGGCUAGACUGCC [C23U G29U]  0.85
10. GGCAGAGCUCAACACAGCGUGGCCAAGUGUCUGUGGCUAGACUGCC [A24C G30U]  0.79
11. GGCAGAGCUCAACACAGCGUGGCCCAGUGGCUGUGGCUAGACUGCC [A24C A25C]  0.73
12. GGCAGAGCUCAACACAGCGUGGCCAAGUGACUGUGGCUAGACUGCC [A24C G30A]  0.71
13. GGCAGAGCUCAACACAGCGUGGCCAAGUGGCUGUGGCUAGACUGCC [A24C]  0.71
14. GGCAGAGCUCAACACAGCGUGGCCAAGUGGCUGUGGCUAGACUGCU [A24C C46U]  0.64
15. GGCAGAGCUCAACACAGCGUGGUAAAGUGGCUGUGGCUAGACUACC [C23U G44A]  0.64
16. GGCAGAGCUCAACACAGCGUGGUAAAGUGGCUGCGGCUAGACUGCC [C23U U34C]  0.62
17. GGCAGAGCUCAACACAGCGUGGUAAAGUGGCUGUGGCUAGUCUGCC [C23U A41U]  0.57
18. GGCAGAGCUCAACACAGCGUGGUAAAGUCGCUGUGGCUAGACUGCC [C23U G29C]  0.52
19. GGCAGAGCUCAACACAGCGUGGUAAAGUGGCUGUGGCUAGACUGGC [C23U C45G]  0.51
20. GGCAGAGCUCAACACAGCGUGGUAAAGUGGCUGUGGCUAGGCUGCC [C23U A41G]  0.51
21. GGCAGAGCUCAACACAGCGUGGCCAAGUGCCUGUGGCUAGACUGCC [A24C G30C]  0.49
22. GGCAGAGCUCAACACAGCGUGGCCAAGUGGCUGUGACUAGACUGCC [A24C G36A]  0.48
23. GGCAGAGCUCAACACAGCGUGGUAAAGUGGCUGUGGCUAGACUCCC [C23U G44C]  0.48
24. GGCAGAGCUCAACACAGCGUGGUAAAGUGGCUGUGGCUAGACUGAC [C23U C45A]  0.47
25. GGCAGAGCUCAACACAGCGUGGCCAUGUGGCUGUGGCUAGACUGCC [A24C A26U]  0.43
26. GGCAGAGCUCAACACAGCGUGGCCAAGUGGCUGUGGCUAGACUGCA [A24C C46A]  0.32
27. GGCAGAGCUCAACACAGCGUGGUAAAGUGGCUGUGGCUAGACUUCC [C23U G44U]  0.32
28. GGCAGAGCUCAACACAGCGUGGUAAAGUGGCUGGGGCUAGACUGCC [C23U U34G]  0.3
29. GGCAGAGCUCAACACAGCGUGGUAAAGUGGCUGUGGCUCGACUGCC [C23U A39C]  0.29
30. GGCAGAGCUCAACACAGCGUGGUAAAGUGGCUGAGGCUAGACUGCC [C23U U34A]  0.28
31. GGCAGAGCUCAACACAGCGUGGCCAAGUGGCUGUGGCUAGACUGCG [A24C C46G]  0.27
32. GGCAGAGCUCAACACAGCGUGGCCAAGUGGCUGUGGCUAGUCUGCC [A24C A41U]  0.26
33. GGCAGAGCUCAACACAGCGUGGCCAAGUGGCUGUGGCUAGGCUGCC [A24C A41G]  0.25
34. GGCAGAGCUCAACACAGCGUGGCCAAGUGGCUGUGGCUAGAAUGCC [A24C C42A]  0.15
35. GGCAGAGCUCAACACAGCGUGGUAAAGUGGCUGUGACUAGACUGCC [C23U G36A]  0.14
36. GGCAGAGCUCAACACAGCGUGGCCAAGUGGCUGUGGCUAGAUUGCC [A24C C42U]  0.13
37. GGCAGAGCUCAACACAGCGUGGUAAAGUGGCUGUGGCUAAACUGCC [C23U G40A]  0.12
38. GGCAGAGCUCAACACAGCGUGGUAAAGUGGCUGUGGCUACACUGCC [C23U G40C]  0.12
39. GGCAGAGCUCAACACAGCGUGGCCAAGUGGCUGUGGCUAUACUGCC [A24C G40U]  0.11
40. GGCAGAGCUCAACACAGCGUGGUAAAGUGGCUGUGGCUAUACUGCC [C23U G40U]  0.11
41. GGCAGAGCUCAACACAGCGUGGCCAAGUGGCUGUGCCUAGACUGCC [A24C G36C]  0.1
42. GGCAGAGCUCAACACAGCGUGGCCAAGUGGCUGUGUCUAGACUGCC [A24C G36U]  0.1
43. GGCAGAGCUCAACACAGCGUGGUAAAGUGGCUGUGGCUGGACUGCC [C23U A39G]  0.1
44. GGCAGAGCUCAACACAGCGUGGCCAAGUGGCUGUGGCUAAACUGCC [A24C G40A]  0.07
45. GGCAGAGCUCAACACAGCGUGGUAAAGUGGCUGUGCCUAGACUGCC [C23U G36C]  0.07
46. GGCAGAGCUCAACACAGCGUGGCCAAGUGGCUGUGGUUAGACUGCC [A24C C37U]  0.06
47. GGCAGAGCUCAACACAGCGUGGUAAAGUGGCUGUGGCUAGCCUGCC [C23U A41C]  0.06
48. GGCAGAGCUCAACACAGCGUGGCCAAGUGGCUGUGGCUACACUGCC [A24C G40C]  0.05
49. GGCAGAGCUCAACACAGCGUGGCCAAGUGGCUGUGGCUAGAGUGCC [A24C C42G]  0.05
50. GGCAGAGCUCAACACAGCGUGGCCAAGUGGCUGUGGCUAGCCUGCC [A24C A41C]  0.04
51. GGCAGAGCUCAACACAGCGUGGUAAAGUGGCUGUGUCUAGACUGCC [C23U G36U]  0.04
52. GGCAGAGCUCAACACAGCGUGGUAAAGUGGCUGUGGUUAGACUGCC [C23U C37U]  0.04
53. GGCAGAGCUCAACACAGCGUGGUAAAGUGGCUGUGGAUAGACUGCC [C23U C37A]  0.04
54. GGCAGAGCUCAACACAGCGUGGCCAAGUGGCUGUGGAUAGACUGCC [A24C C37A]  0.03
55. GGCAGAGCUCAACACAGCGUGGCCAAGUGGCUGUGGGUAGACUGCC [A24C C37G]  0.02
56. GGCAGAGCUCAACACAGCGUGGUAAAGUGGCUGUGGGUAGACUGCC [C23U C37G]  0.02
